Data on eleven substances can be found in publication PMC3036719.

Experiment [1] concerns the target human fibrinogen (human) (UniProt P02671). Briefly: ELISA; data not shown; LigB proteins on immobilised fibronectin, its 70-kDa N-terminal fragment or fibrinogen.
Experiment [2] has the same target. As to the kind of experiment: bacterial cell adhesion ELISA; wells coated with 1 µg human fibrinogen or fragment D, blocked with 20 mg/mL BSA; 3×10^8 leptospires, 1 h at 30°C; adherent cells fixed with formaldehyde and detected with a rabbit antibody to L. biflexa; increase over wild-type L. biflexa.
For experiment [3] the target is unchanged. As to the kind of experiment: ELISA; host protein (1 µg per well) immobilised in microtiter wells, blocked with 20 mg/mL BSA; recombinant LigB in 20 mg/mL BSA in PBS pH 7.2, 1 h at 37°C; bound LigB detected by its polyhistidine tag; apparent Kd from the LigB concentration at half-maximal binding.
Experiment [4] concerns the target human fibronectin from plasma (human). The experiment is described as above.
Experiment [5] deals with human fibrinogen (human) (UniProt P02671).
human fibrinogen (human), sequence (P02671 20-866, chain 1 of 3): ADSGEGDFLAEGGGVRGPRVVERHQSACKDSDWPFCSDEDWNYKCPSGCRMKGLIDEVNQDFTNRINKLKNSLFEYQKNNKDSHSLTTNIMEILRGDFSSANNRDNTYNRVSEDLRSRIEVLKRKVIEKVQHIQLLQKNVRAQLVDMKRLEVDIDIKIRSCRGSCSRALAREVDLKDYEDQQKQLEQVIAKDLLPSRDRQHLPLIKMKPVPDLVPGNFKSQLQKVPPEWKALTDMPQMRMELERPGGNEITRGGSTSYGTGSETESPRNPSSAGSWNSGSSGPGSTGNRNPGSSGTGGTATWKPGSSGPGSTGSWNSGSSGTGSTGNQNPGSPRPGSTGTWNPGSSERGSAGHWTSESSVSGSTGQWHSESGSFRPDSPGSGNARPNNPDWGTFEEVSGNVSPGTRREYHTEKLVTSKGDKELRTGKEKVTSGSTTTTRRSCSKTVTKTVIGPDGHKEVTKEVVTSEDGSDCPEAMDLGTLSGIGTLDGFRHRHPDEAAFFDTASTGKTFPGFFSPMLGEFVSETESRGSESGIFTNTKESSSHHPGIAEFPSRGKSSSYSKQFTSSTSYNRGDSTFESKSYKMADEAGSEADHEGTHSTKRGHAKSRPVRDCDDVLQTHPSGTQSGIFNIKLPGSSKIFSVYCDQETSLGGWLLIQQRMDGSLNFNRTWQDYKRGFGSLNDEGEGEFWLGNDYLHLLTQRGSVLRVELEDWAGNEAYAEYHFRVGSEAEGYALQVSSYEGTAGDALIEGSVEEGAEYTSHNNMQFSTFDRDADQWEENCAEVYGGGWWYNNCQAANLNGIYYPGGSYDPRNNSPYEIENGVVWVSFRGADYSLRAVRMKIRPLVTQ
human fibrinogen (human), sequence (P02675 31-491, chain 2 of 3, further chain): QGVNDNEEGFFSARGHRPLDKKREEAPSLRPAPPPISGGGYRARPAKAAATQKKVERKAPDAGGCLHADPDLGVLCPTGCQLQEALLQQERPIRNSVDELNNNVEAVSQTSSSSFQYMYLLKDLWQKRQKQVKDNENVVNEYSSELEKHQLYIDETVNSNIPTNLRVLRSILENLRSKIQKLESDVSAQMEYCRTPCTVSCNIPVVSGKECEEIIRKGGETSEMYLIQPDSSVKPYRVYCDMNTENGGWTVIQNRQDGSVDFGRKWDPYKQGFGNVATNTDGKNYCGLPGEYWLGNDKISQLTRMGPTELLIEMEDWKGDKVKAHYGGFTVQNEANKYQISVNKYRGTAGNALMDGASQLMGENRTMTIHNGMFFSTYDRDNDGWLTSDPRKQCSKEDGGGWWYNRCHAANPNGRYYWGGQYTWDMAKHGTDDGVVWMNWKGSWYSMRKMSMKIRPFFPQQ
human fibrinogen (human), sequence (P02679 27-453, chain 3 of 3, further chain): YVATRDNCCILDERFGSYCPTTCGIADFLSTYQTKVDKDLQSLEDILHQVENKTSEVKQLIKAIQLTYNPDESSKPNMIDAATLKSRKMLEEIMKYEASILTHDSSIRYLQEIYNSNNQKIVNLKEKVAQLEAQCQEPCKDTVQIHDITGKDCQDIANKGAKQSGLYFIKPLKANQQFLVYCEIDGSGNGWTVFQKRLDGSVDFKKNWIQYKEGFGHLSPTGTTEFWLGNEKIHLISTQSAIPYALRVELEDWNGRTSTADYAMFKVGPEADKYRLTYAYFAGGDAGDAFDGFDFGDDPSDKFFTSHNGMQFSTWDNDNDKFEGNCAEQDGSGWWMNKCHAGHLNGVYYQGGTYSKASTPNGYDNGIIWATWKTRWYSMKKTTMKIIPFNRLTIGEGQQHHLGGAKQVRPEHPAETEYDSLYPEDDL
Experiment [6] concerns the target human fibronectin from fibroblasts (human). As to the kind of experiment: ELISA; host protein (1 µg per well) immobilised in microtiter wells, blocked with 20 mg/mL BSA; recombinant LigB in 20 mg/mL BSA in PBS pH 7.2, 1 h at 37°C; bound LigB detected by its polyhistidine tag; apparent Kd from the LigB concentration at half-maximal binding.
For experiment [7], the target named is human fibronectin from plasma (human). Described as above. The source holds these as a separate data set.
The target of experiment [8] is human type III collagen (human) (UniProt P02461). The experiment is described as above.
human type III collagen (human), sequence (P02461 154-1221): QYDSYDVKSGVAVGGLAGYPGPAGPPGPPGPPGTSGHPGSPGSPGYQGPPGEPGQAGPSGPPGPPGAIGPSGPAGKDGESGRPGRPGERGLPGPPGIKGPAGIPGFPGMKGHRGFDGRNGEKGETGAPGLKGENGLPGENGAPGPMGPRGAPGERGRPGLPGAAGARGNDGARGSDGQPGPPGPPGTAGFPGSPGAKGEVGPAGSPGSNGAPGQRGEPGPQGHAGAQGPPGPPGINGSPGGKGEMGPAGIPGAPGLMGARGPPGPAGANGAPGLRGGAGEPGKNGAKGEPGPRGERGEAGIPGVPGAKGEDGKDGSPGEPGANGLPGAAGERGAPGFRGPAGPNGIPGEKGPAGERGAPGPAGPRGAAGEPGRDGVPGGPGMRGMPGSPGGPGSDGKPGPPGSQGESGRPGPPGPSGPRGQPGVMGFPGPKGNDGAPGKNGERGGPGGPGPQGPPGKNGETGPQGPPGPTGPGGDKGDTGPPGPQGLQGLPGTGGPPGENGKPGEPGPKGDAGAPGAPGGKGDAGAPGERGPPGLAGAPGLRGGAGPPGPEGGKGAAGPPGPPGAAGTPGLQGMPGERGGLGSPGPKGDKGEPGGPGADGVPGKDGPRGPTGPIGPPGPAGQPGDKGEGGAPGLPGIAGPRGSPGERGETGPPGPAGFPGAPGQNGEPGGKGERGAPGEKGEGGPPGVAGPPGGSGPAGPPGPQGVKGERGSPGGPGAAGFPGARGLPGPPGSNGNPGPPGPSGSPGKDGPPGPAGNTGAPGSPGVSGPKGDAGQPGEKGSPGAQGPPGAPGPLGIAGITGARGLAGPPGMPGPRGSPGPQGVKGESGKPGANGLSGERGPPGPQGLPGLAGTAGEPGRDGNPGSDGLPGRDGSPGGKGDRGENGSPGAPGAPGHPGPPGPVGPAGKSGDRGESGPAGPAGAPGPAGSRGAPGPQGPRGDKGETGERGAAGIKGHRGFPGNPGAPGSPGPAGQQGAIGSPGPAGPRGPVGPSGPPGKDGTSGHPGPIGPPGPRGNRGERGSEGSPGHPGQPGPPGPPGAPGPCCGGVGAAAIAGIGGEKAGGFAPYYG
Experiment [9] has as its target human fibrinogen (human) (UniProt P02671). The description is as above. The source holds these as a separate data set.
The target of experiment [10] is fibrinogen fragment D (human). As to the kind of experiment: bacterial cell adhesion ELISA; wells coated with 1 µg human fibrinogen or fragment D, blocked with 20 mg/mL BSA; 3×10^8 leptospires, 1 h at 30°C; adherent cells fixed with formaldehyde and detected with a rabbit antibody to L. biflexa; increase over wild-type L. biflexa.
fibrinogen fragment D (human), sequence (P02671 130-216, chain 1 of 3): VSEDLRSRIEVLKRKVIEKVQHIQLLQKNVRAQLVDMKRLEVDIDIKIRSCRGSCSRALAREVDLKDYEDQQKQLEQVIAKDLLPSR
fibrinogen fragment D (human), sequence (P02675 164-491, chain 2 of 3, further chain): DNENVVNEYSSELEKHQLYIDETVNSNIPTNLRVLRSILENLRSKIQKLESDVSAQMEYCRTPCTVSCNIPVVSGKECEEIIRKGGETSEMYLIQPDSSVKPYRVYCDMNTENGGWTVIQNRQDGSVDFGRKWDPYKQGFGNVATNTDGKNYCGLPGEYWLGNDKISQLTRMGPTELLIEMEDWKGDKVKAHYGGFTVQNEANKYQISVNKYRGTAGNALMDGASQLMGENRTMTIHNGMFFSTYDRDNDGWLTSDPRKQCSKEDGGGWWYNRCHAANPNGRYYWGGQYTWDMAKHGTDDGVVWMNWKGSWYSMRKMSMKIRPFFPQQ
fibrinogen fragment D (human), sequence (P02679 114-432, chain 3 of 3, further chain): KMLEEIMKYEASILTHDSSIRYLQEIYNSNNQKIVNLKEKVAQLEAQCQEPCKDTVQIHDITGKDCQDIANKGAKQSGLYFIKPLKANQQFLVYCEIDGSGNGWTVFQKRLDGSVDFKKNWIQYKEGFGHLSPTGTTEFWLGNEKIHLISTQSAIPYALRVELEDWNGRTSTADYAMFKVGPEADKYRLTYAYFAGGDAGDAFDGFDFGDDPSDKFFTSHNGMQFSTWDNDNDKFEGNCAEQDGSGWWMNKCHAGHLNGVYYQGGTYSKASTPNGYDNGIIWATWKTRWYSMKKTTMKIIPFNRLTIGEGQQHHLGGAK
The target in experiment [11] is human fibronectin from plasma (human). As to the kind of experiment: ELISA; data not shown; LigB proteins on immobilised fibronectin, its 70-kDa N-terminal fragment or fibrinogen.

Where two headings read alike, the source gives them in different places. A value given as a limit tells only on which side of the number the result lay.

In the experiment with human fibrinogen (human) [1], “LigB9-11 with N-terminal H6 (cloned in pET-14b) (domain or fragment)” showed a residual fibrinogen-binding activity relative to LigB9-11 of less than 10%.
“LigB from L. interrogans expressed on L. biflexa (ligB transformant) (natural protein)”: in the experiment with human fibrinogen (human) [2], the percent increase of adhesion over wild-type L. biflexa was determined as 55% and the percent increase of adhesion over wild-type L. biflexa (representative experiment) is 37%.
With LigB7′-12 (domain or fragment), the Kd came out at 34 nM with human fibrinogen (human) [3] and 23 nM in experiment [4].
For LigB7′-11 (domain or fragment), the values for the Kd (with human fibrinogen (human) [3]; in [4]) were 63 nM and 27 nM, respectively.
Turning to LigB9-11 (domain or fragment), the decrease of thrombin-catalysed fibrin formation from purified fibrinogen (3 µM fibrinogen preincubated with 5 µM LigB9-11; three determinations, 22 to 43%) in the experiment with human fibrinogen (human) [5] was 29%. Also, the Kd with human fibrinogen (human) [3] was 27 nM; in experiment [4] it was 31 nM; in experiment [6], 25 nM; in [7] it was 32 nM; in experiment [8], 30 nM; with human fibrinogen (human) [9], 28 nM.
Consider “LigA from L. interrogans expressed on L. biflexa (ligA transformant) (natural protein)”, for which the percent increase of adhesion over wild-type L. biflexa in experiment [10] was found to be 58%. In the experiment with human fibrinogen (human) [2], this substance returned a percent increase of adhesion over wild-type L. biflexa of 55% and a percent increase of adhesion over wild-type L. biflexa (representative experiment) of 56%.
Consider LigB8-12 (domain or fragment), for which, in experiment [4], the Kd was 26 nM.
For LigB9-10 (domain or fragment), the Kd with human fibrinogen (human) [3] is 169 nM; in experiment [4], 252 nM.
LigB9-11′ (domain or fragment): in the experiment with human fibrinogen (human) [1], the percent decrease of fibrinogen-binding activity relative to LigB9-11 was 50%. In [11], this substance showed a percent decrease of fibronectin-binding activity relative to LigB9-11 of 80%.
For the substance LigB9-12 (domain or fragment), the Kd with human fibrinogen (human) [3] came out at 37 nM; in experiment [4], 22 nM.
On the same counts, the results for LigB7′-10 (domain or fragment) are 207 nM and 77 nM.
